The target of the series is cardiac troponin T (cTn-T) (UniProt P45379). The series is described as follows: electrochemical aptasensor. Conditions: thiol (end not stated); Protein in 10 mM PBS pH 7.4, 30 min on BSA-blocked electrode, PBS wash; read in 0.10 M KCl with 5.0 mM K3/K4[Fe(CN)6]; temperature not stated.

The sequence “CGTGCAGTACGCCAACCTTTCTCATGCGCTGCCCCTCTTA [cTn-I aptamer (Jo et al.)]” registered a binding signal (% normalized response) of less than 5.

Source of the values: paper PMC9599711.
